Laboratory results reported in patent US20240309103A1 (Regeneron, published 2024).

T1: mfNPR1-mFc (monkey)
T1 construct: also called dimeric monkey NPR1
T1 chain: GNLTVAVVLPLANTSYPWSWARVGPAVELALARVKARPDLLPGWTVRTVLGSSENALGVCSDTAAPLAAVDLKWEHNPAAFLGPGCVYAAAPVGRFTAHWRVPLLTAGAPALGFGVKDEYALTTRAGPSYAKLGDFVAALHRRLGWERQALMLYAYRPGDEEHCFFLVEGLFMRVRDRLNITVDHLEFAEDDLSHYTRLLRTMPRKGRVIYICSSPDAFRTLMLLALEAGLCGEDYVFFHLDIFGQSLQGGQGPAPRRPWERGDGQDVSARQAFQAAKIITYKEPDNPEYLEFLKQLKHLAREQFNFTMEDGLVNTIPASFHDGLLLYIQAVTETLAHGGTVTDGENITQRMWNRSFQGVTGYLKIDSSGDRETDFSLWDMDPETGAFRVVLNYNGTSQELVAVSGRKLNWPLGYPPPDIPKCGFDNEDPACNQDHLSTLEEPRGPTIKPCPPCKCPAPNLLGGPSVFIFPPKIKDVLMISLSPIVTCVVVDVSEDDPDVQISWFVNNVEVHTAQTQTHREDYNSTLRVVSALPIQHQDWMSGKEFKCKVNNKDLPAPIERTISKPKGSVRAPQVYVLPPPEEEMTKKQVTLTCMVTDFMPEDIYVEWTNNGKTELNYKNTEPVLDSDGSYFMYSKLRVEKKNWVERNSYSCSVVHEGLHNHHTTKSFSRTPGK

B1: mAb22035 (antibody, human IgG4, V domains shown)
VH: EVQLVESGGGLVQPGRSLRLSCAASGFTFDDYAMHWVRQAPGKGLEWVSGISWNSGTIGYADSVKGRFTMSRDNAKNSLYLQMNSLRPEDTALYYCAKDMGVSLALWGAFDIWGQGTMVTVSS
VL: DIQMTQSPSSLSASVGDKVTITCRASQNIRTYLNWYQQKPGKAPKVLISTASSLQSGVPSRFSGSGSGTDFTLTISSLQPEDFAVFYCQQSFGIPRTFGQGTKVEIK
B2: mAb22809 (antibody, human IgG4, V domains shown)
VH: QLQLRESGPGLVKPSETLSLTCTVSGGSINDNSFFWDWIRQTPGRGLEWIGNIFFDGNTYYTPSLKSRVIISVDMSQNQFSLRLTSVTAADTALYYCARHKRSMTAWGFFDYWGQGTLVTVSS
VL: DIQMTQSPSSLSASVGDRVTITCRASKRINTYLNWYQQKPGKAPKVLIYSASNLQSGVPSRFSGSGSGTDFTLTINSLQPEDFATYFCQQSFSAPPITFGQGTRLEIK
B3: mAb25479 (antibody, human IgG4, V domains shown)
VH: QVQLVQSGAEVKKPGASVKVSCKASGYTFTGYYIHWVRQAPGQGLEWMGWINPNSIGTNYAQKFQGRVTLTRDTSISTAYMELSSLRSDDTAVYYCARGGSSSYYYYYYGMDVWGQGTTVTVSS
VL: DIQMTQSPSSLSASVGDRVTITCRASQSIDNYLNWYQQKPGKAPKLLIYVASSLQSGVPSRFSGSGSGTDFTLTISSLQPEDFATYYCQQSYSTPLTFGGGTKVEIK
B4: mAb25491 (antibody, human IgG4, V domains shown)
VH: QVQLVQSGAEVMKPGASVKVSCKASGYTFTGYYIHWVRQAPGQGLEWMGWITPNSGATNYAQKFQGRVTLTRDTSISTAYMELTRLKSDDTAVYYCARGGQLEFFYYYYGMDVWGQGTTVTVSS
VL: DIQMTQSPSSLSASAGDRVTITCRASQSIDSYLNWYQQKPGKAPKLLISATSGFQSGVPSRFSGSGSGTDFTLTISSLQPEDFGTYYCQQSYTTPITFGQGTRLEIK

These binders were tested against T2, mfNPR1-mFc:hANP complex (monkey; human, UniProt P01160 124-151) (assay: SPR, mAb captured, 37C).
T2 construct: also called monkey NPR1 complexed to ANP
Experimental: (§1) Equilibrium dissociation constant (KD) for different NPR1 reagents binding to purified anti-NPR1 monoclonal antibodies (mAbs) were determined using a real-time surface plasmon resonance based Biacore 4000 biosensor. All binding studies were performed in 10 mM HEPES, 150 mM NaCl, 3 mM EDTA, and 0.05% v/v Surfactant Tween-20, pH 7.4 (HBS-ET) running buffer at 25° C. and 37° C. The Biacore CM5 sensor chip surface was first derivatized by amine coupling with either mouse anti-human Fc specific mAb (GE Healthcare, #BR100839) or goat anti-human Fcy specific polyclonal antibody (Jackson ImmunoResearch Laboratories, #BR-1008-39) to capture anti-NPR1 mAbs.
With B1 the “100 nM Ag Bound (RU)” value was 283 RU, the Kd was 0.302 nM and the koff was 7.7e-05 s⁻¹. The kon was 255000 M⁻¹ s⁻¹ and the t½ was 2.5 h. For B2, the “100 nM Ag Bound (RU)” value was 106 RU, the Kd was 3.7 nM and the koff was 0.000205 s⁻¹. For the same binder, the kon was 55500 M⁻¹ s⁻¹ and the t½ was 0.937 h. For B3, the “100 nM Ag Bound (RU)” value was 138 RU, the Kd was 4 nM and the koff was 0.000219 s⁻¹. The kon was 54700 M⁻¹ s⁻¹ and the t½ was 0.88 h. For B4, the “100 nM Ag Bound (RU)” value was 148 RU, the Kd was 1.49 nM and the koff was 0.000106 s⁻¹. The kon was 71000 M⁻¹ s⁻¹ and the t½ was 1.82 h.

Molecular target: T1, mfNPR1-mFc
Assay: SPR, mAb captured, 37C
Experimental: as §1
B1 was tested, and the “100 nM Ag Bound (RU)” value was 291 RU, the Kd was 0.184 nM and the koff was 8.44e-05 s⁻¹. It also gave a kon of 459000 M⁻¹ s⁻¹ and a t½ of 2.28 h. With B2 the “100 nM Ag Bound (RU)” value was 8 RU. With B3 the “100 nM Ag Bound (RU)” value was 89 RU, the Kd was 28.1 nM and the koff was 0.00108 s⁻¹. The kon was 38200 M⁻¹ s⁻¹ and the t½ was 0.178 h. With B4 the “100 nM Ag Bound (RU)” value was 114 RU, the Kd was 3.49 nM and the koff was 0.000164 s⁻¹. The kon was 47000 M⁻¹ s⁻¹ and the t½ was 1.17 h.

What follows are binders tested against T3, hNPR1-mFc:hBNP complex (human, UniProt P16860 103-134) (assay: SPR, mAb captured, 37C).
T3 construct: also called human NPR1 complexed to BNP
Experimental: as §1
In the case of B1, the “100 nM Ag Bound (RU)” value is reported as 243 RU, the Kd is reported as 0.553 nM and the koff is reported as 0.000128 s⁻¹. For the same binder, the kon was 232000 M⁻¹ s⁻¹ and the t½ was 1.5 h. With B2 the “100 nM Ag Bound (RU)” value was 63 RU, the Kd was 3.56 nM and the koff was 0.000166 s⁻¹. The kon was 46500 M⁻¹ s⁻¹ and the t½ was 1.16 h. In the case of B3, the “100 nM Ag Bound (RU)” value is reported as 85 RU, the Kd is reported as 3.83 nM and the koff is reported as 0.000163 s⁻¹. For the same binder, the kon was 42700 M⁻¹ s⁻¹ and the t½ was 1.18 h. For B4, the “100 nM Ag Bound (RU)” value was 96 RU, the Kd was 2.45 nM and the koff was 0.000134 s⁻¹. The kon was 54700 M⁻¹ s⁻¹ and the t½ was 1.44 h.

Each binder was assayed against T4, hNPR1-mFc:hANP or hNPR1-hFc:hANP complex (human, UniProt P01160 124-151) (assay: SPR, mAb captured, 37C).
T4 construct: also called human NPR1 complexed to ANP
Experimental: as §1
In the case of B1, the “100 nM Ag Bound (RU)” value is reported as 237 RU, the Kd is reported as 0.508 nM and the koff is reported as 0.000114 s⁻¹. It also gave a kon of 225000 M⁻¹ s⁻¹ and a t½ of 1.68 h. In the case of B2, the “100 nM Ag Bound (RU)” value is reported as 68 RU, the Kd is reported as 3.29 nM and the koff is reported as 0.000166 s⁻¹. For the same binder, the kon was 50400 M⁻¹ s⁻¹ and the t½ was 1.16 h. For B3, the “100 nM Ag Bound (RU)” value was 84 RU, the Kd was 2.7 nM and the koff was 0.000134 s⁻¹. It also gave a kon of 49700 M⁻¹ s⁻¹ and a t½ of 1.43 h. B4 was tested, and the “100 nM Ag Bound (RU)” value was 96 RU, the Kd was 1.95 nM and the koff was 0.000111 s⁻¹. It also gave a kon of 56900 M⁻¹ s⁻¹ and a t½ of 1.73 h.

These binders were tested against T5, mfNPR1-mFc:hBNP complex (monkey; human, UniProt P16860 103-134) (assay: SPR, mAb captured, 25C).
T5 construct: also called monkey NPR1 complexed to BNP
Experimental: as §1
In the case of B1, the “100 nM Ag Bound (RU)” value is reported as 231 RU, the Kd is reported as 0.3 nM and the koff is reported as 6.13e-05 s⁻¹. The kon was 205000 M⁻¹ s⁻¹ and the t½ was 3.14 h. In the case of B2, the “100 nM Ag Bound (RU)” value is reported as 80 RU, the Kd is reported as 3.85 nM and the koff is reported as 0.00016 s⁻¹. For the same binder, the kon was 41400 M⁻¹ s⁻¹ and the t½ was 1.21 h. In the case of B3, the “100 nM Ag Bound (RU)” value is reported as 86 RU, the Kd is reported as 2.95 nM and the koff is reported as 0.000113 s⁻¹. It also gave a kon of 38100 M⁻¹ s⁻¹ and a t½ of 1.71 h. For B4, the “100 nM Ag Bound (RU)” value was 110 RU, the Kd was 0.632 nM and the koff was 3.71e-05 s⁻¹. The kon was 58600 M⁻¹ s⁻¹ and the t½ was 5.19 h.

The binders below were run against T2, mfNPR1-mFc:hANP complex (assay: SPR, mAb captured, 25C).
Experimental: as §1
B1 was tested, and the “100 nM Ag Bound (RU)” value was 227 RU, the Kd was 0.246 nM and the koff was 4.66e-05 s⁻¹. The kon was 189000 M⁻¹ s⁻¹ and the t½ was 4.13 h. With B2 the “100 nM Ag Bound (RU)” value was 86 RU, the Kd was 3.88 nM and the koff was 0.000173 s⁻¹. The kon was 44700 M⁻¹ s⁻¹ and the t½ was 1.11 h. In the case of B3, the “100 nM Ag Bound (RU)” value is reported as 86 RU, the Kd is reported as 2.44 nM and the koff is reported as 0.000103 s⁻¹. It also gave a kon of 42000 M⁻¹ s⁻¹ and a t½ of 1.88 h. With B4 the “100 nM Ag Bound (RU)” value was 111 RU, the Kd was 0.757 nM and the koff was 4.55e-05 s⁻¹. It also gave a kon of 60100 M⁻¹ s⁻¹ and a t½ of 4.23 h.

Molecular target: T1, mfNPR1-mFc
Assay: SPR, mAb captured, 25C
Experimental: as §1
B1 was tested, and the “100 nM Ag Bound (RU)” value was 231 RU, the Kd was 0.229 nM and the koff was 5.57e-05 s⁻¹. The kon was 244000 M⁻¹ s⁻¹ and the t½ was 3.45 h. In the case of B2, the “100 nM Ag Bound (RU)” value is reported as 6 RU and the binding result is reported as “no binding (tested: 100 nM)”. With B3 the “100 nM Ag Bound (RU)” value was 54 RU, the Kd was 16.2 nM and the koff was 0.000507 s⁻¹. It also gave a kon of 31200 M⁻¹ s⁻¹ and a t½ of 0.38 h. In the case of B4, the “100 nM Ag Bound (RU)” value is reported as 81 RU, the Kd is reported as 1.4 nM and the koff is reported as 7.54e-05 s⁻¹. The kon was 54000 M⁻¹ s⁻¹ and the t½ was 2.55 h.

Each binder was assayed against T3, hNPR1-mFc:hBNP complex (assay: SPR, mAb captured, 25C).
Experimental: as §1
With B1 the “100 nM Ag Bound (RU)” value was 194 RU, the Kd was 0.508 nM and the koff was 8.7e-05 s⁻¹. For the same binder, the kon was 171000 M⁻¹ s⁻¹ and the t½ was 2.21 h. With B2 the “100 nM Ag Bound (RU)” value was 51 RU, the Kd was 6.72 nM and the koff was 0.000221 s⁻¹. The kon was 32800 M⁻¹ s⁻¹ and the t½ was 0.873 h. For B3, the “100 nM Ag Bound (RU)” value was 50 RU, the Kd was 4.21 nM and the koff was 0.000123 s⁻¹. It also gave a kon of 29200 M⁻¹ s⁻¹ and a t½ of 1.57 h. With B4 the “100 nM Ag Bound (RU)” value was 72 RU, the Kd was 0.908 nM and the koff was 4.96e-05 s⁻¹. For the same binder, the kon was 54600 M⁻¹ s⁻¹ and the t½ was 3.88 h.

What follows are binders tested against T4, hNPR1-mFc:hANP or hNPR1-hFc:hANP complex (assay: SPR, mAb captured, 25C).
Experimental: as §1
In the case of B1, the “100 nM Ag Bound (RU)” value is reported as 186 RU, the Kd is reported as 0.434 nM and the koff is reported as 7.78e-05 s⁻¹. The kon was 179000 M⁻¹ s⁻¹ and the t½ was 2.47 h. In the case of B2, the “100 nM Ag Bound (RU)” value is reported as 53 RU, the Kd is reported as 4.94 nM and the koff is reported as 0.000193 s⁻¹. The kon was 39200 M⁻¹ s⁻¹ and the t½ was 0.995 h. For B3, the “100 nM Ag Bound (RU)” value was 49 RU, the Kd was 3.53 nM and the koff was 0.000109 s⁻¹. It also gave a kon of 31000 M⁻¹ s⁻¹ and a t½ of 1.76 h. In the case of B4, the “100 nM Ag Bound (RU)” value is reported as 71 RU, the Kd is reported as 0.794 nM and the koff is reported as 4.15e-05 s⁻¹. The kon was 52200 M⁻¹ s⁻¹ and the t½ was 4.64 h.
